Data as given in US20240002491A1, “METHODS FOR SELECTING PATIENTS FOR TREATMENT WITH AN NGF ANTAGONIST” (Regeneron Pharmaceuticals, Inc., priority 2022, published 2024).

Assays:
[1] = test system: adults with moderate-to-severe chronic pain associated with osteoarthritis (OA) of the knee or hip; assay: Adjudicated arthropathies across the three fasinumab Phase 3 trials; type: in vivo, human; conditions: across all three Phase 3 trials
Description: NCT02683239 (R475-PN-1523, or “FACT LTS”), NCT03161093 (R475-OA-1611, or “FACT OA1”), and NCT03304379 (R475-OA-1688, or “FACT OA2”) each were Phase 3 trials evaluating fasinumab in adults with moderate-to-severe chronic pain associated with osteoarthritis (OA) of the knee or hip. All three of these trials enrolled patients with OA of the knee or hip who had inadequate pain relief with acetaminophen and were intolerant to or had inadequate pain relief with opioids, or were unwilling or unable to take opioids. Complete inclusion and exclusion criteria for the trials are described at clinicaltrials.gov/ct2/show/NCT03161093, clinicaltrials.gov/ct2/show/NCT03304379, and clinicaltrials.gov/ct2/show/NCT02683239.
The FACT LTS study evaluated the long-term safety and tolerability of fasinumab, including adverse events of special interest such as joint damage (e.g. arthropathies), compared with placebo. A total of 2,411 patients were randomized to one of the following treatment arms: (1) fasinumab 1 mg subcutaneous (SC) every 8 weeks (Q8W); (2) fasinumab 1 mg SC every 4 weeks (Q4W); or (3) matching placebo SC Q4W. This study also included a substudy evaluating the efficacy of fasinumab in these same patient groups (n=215 in fasinumab 1 mg Q8W, n=217 in fasinumab 1 mg Q4W, n=214 in placebo).

[2] = test system: patients with OA of the knee and/or hip; assay: Integrated summary of efficacy (ISE): change in WOMAC pain subscale score at 16 weeks by joint subgroup; type: in vivo, human; conditions: 1Q4 and 1Q8 regimens; all joint subgroups; 95% confidence intervals excluded zero only for the 1-2 and 3-4 joint subgroups
Description: The integrated summary of efficacy (ISE) examined the change in WOMAC pain subscale score at 16 weeks in each of the above subgroups and is illustrated in the Forrest plot below (FIG. 4).

[3] = test system: patients with OA of the knee and/or hip; assay: ISS post-hoc analysis combining OA joint burden and alkaline phosphatase cut-off (weeks 8-16); type: in vivo, human
Description: Both the baseline burden of OA and the change in alkaline phosphatase identify patients with higher risk of AA/DA/JR; these findings are observed only in the fasinumab arms, not the placebo arm, indicating an NGF-specific mechanism. The results raise the possibility of excluding high-risk patients and treating only patients with lower risk of joint-related adverse events, using more than one approach. To understand whether there is an interaction between the two approaches, and to explore a number of potential risk mitigation options, a post-hoc analysis was performed on the ISS data set to examine the impact of alkaline phosphatase within various joint subgroups. Because efficacy was preserved in the 1-2 and 3-4 joint subgroups as discussed above, the rates of AA/DA/JR were examined in overlapping subgroups: patients with 1-2, 1-3 and 1-4 joints with OA at baseline. For each of these subgroups, five potential cut-offs for change in alkaline phosphatase were explored: no change, 5-, 10-, 15- and 20-point change from baseline.
FIGS. 8A-8D show the percentage of patients with AA/DA/JR following exclusion of those who have a change in alkaline phosphatase at or above the designated cut-off at any time between weeks 8 and 16. In each of FIGS. 8A-8D, the X-axis represents overlapping bins of patients that become successively smaller as one looks left to right (percentage of the total population remaining in each bin is shown in the table beneath the graph). […] The next 5 bins to the right show the rates of AA/DA/JR in the patients who remain after excluding those above the designated cut-off for change in alkaline phosphatase. The placebo rate from the total ISS population is expressed as a solid black line.
For each of the joint related adverse events, the burden of OA and change in alkaline phosphatase are complementary from the perspective of risk-reduction. FIGS. 8A, 8C, and 8E show the reduction of risk of JR, AA, and DA, respectively, in patients treated with 1 mg fasinumab Q8W, for patients with different OA burden at different cut-off values for change in alkaline phosphatase. Similarly, FIGS. 8B, 8D, and 8F show the reduction of risk of JR, AA, and DA, respectively, in patients treated with 1 mg fasinumab Q4W, for patients with different OA burden at different cut-off values for change in alkaline phosphatase. For example, for the 1Q4 treatment arm and in the 1-2 joint subgroup, the JR rate is reduced from 7.4% in the total ISS population, to 6.4% in the 1-2 joint subgroup, to 5.5% in the population below the 20-point alkaline phosphatase cut-off—a difference of 0.4% from the ISS placebo rate (FIG. 8B). Similarly, for the 1Q4 treatment arm and in the 1-2 joint subgroup, the overall AA rate (70-80% RPDA-1) is reduced from 9.2% in the total ISS population, to 7.7% in the 1-2 joint subgroup, to 7.1% in the population below the 20-point alkaline phosphatase cut-off—a difference of 5.6% from the ISS placebo rate (FIG. 8D). Last, the DA rate is reduced from 0.5% in the total ISS population, to 0.3% in the 1-2 joint subgroup, to 0.1% in the population below the 20-point alkaline phosphatase (FIG. 8F).

alkaline phosphatase [4] = conditions: DA patients at all doses; by 16 weeks
Description: Three non-overlapping subgroups are shown: patients without AA, patients with DA and patients with non-DA AAs.

alkaline phosphatase [5] = conditions: cited from earlier work
[6] = test system: patients with OA of the knee and/or hip; assay: ISS rates of DA and AA above and below cut-offs for change in alkaline phosphatase at 16 weeks
Description: To explore this possibility, three different cut-offs at 16 weeks were chosen (10, 15 and 20 U/L change from baseline) and the rate of DA above and below each cut-off was examined (FIG. 6). Of note, the standard deviation for change in alkaline phosphatase in the placebo arm is 12.9 at 8 weeks and 12.7 at 16 weeks.

[7] = 1Q4, 1-2 joint subgroup, below the 20-point alkaline phosphatase cut-off
[8] = 1Q4, 1-2 joint subgroup, lower cut-offs for change in alkaline phosphatase

Fasinumab: fully-human high-affinity monoclonal antibody directed against NGF; HCVR/LCVR SEQ ID NOs: 2/10
rates of adjudicated arthropathies compared with placebo or NSAIDs [1]: higher rates of arthropathies were adjudicated in patients treated with fasinumab compared with placebo or NSAIDs, which were dose-dependent | change in WOMAC pain subscale score at 16 weeks compared with placebo [2]: numerically greater improvement compared with placebo | DA rate, difference from placebo rate ([3]; 1 mg Q4W, alkaline phosphatase cut-off of 20): 0.1% | DA rate [3, 7]: 0.1% | JR rate [3, 7]: 5.5% | JR rate, difference from the ISS placebo rate [3, 7]: 0.4% | overall AA rate [3, 7]: 7.1% | overall AA rate, difference from the ISS placebo rate [3, 7]: 5.6% | overall AA rate [3, 8]: 4.6% | overall AA rate, difference from the placebo rate [3, 8]: 2.5% | rates of JR and DA [3, 8]: approximately the placebo rates | DA rate ([3]; 1Q4, total ISS population): 0.5% | JR rate ([3]; 1Q4, total ISS population): 7.4% | overall AA rate ([3]; 1Q4, total ISS population): 9.2% | mean change from baseline in alkaline phosphatase (alkaline phosphatase [4]): 20 U/L | mean increase in alkaline phosphatase following initiation of therapy (alkaline phosphatase [5]; depending upon dose): 5 to 10 U/L | time of peak of the mean increase in alkaline phosphatase (alkaline phosphatase [5]; following initiation of therapy): approximately 16 weeks | odds ratios of DA, change in alkaline phosphatase above vs below cut-off ([6]; cut-offs 10, 15, 20 U/L at 16 weeks, 1Q4 and 1Q8): 6 to 25 | odds ratios of AA, change in alkaline phosphatase above vs below cut-off ([6]; cut-offs at 16 weeks, all 95% confidence intervals excluding 1): 1.5 to 2.5
